Laboratory results reported in the Immune Epitope Database (IEDB).

Experiments:
HLA-B*48:01 = experiment: IEDB peptide-MHC binding, purified MHC/direct/fluorescence; filed as Kd, often an IC50 or EC50 that approximates it; ≥ and ≤ were set here for values at or beyond the usual limits of such assays
HLA-A*69:01 = experiment: as above
HLA-A*31:01 = experiment: as above
HLA-B*39:01 [1] = experiment: as above; conditions: source organism: Ravn virus - Ravn, Kenya, 1987
HLA-A*11:01 = experiment: as above
HLA-A*01:01 = experiment: as above
HLA-B*07:02 [2] = experiment: as above
HLA-A*02:01 = experiment: as above
HLA-B*58:01 [3] = experiment: as above
HLA-B*18:01 = experiment: as above
HLA-B*44:02 = experiment: as above
HLA-B*08:03 = experiment: as above; conditions: source organism: Ravn virus - Ravn, Kenya, 1987
HLA-A*26:02 = experiment: as above; conditions: source organism: Ravn virus - Ravn, Kenya, 1987
HLA-A*26:03 = experiment: as above; conditions: source organism: Ravn virus - Ravn, Kenya, 1987
HLA-A*68:02 = experiment: as above; conditions: source organism: Marburg virus - Musoke, Kenya, 1980
HLA-B*08:02 = experiment: as above
HLA-B*57:01 = experiment: as above
HLA-B*40:01 = experiment: as above
HLA-B*15:17 [4] = experiment: as above; conditions: source organism: Marburg virus - Musoke, Kenya, 1980
HLA-B*27:05 = experiment: as above
HLA-B*15:02 = experiment: as above; conditions: source organism: dengue virus type 4
HLA-B*46:01 = experiment: as above
HLA-A*02:19 = experiment: as above; conditions: source organism: Rickettsia typhi
HLA-A*30:01 [5] = experiment: as above; conditions: source organism: Rickettsia typhi
HLA-A*23:01 = experiment: as above; conditions: source organism: Rickettsia typhi
HLA-A*24:03 = experiment: as above; conditions: source organism: Rickettsia typhi
HLA-A*29:02 = experiment: as above; conditions: source organism: Rickettsia typhi
HLA-A*02:10 = experiment: as above; conditions: source organism: Rickettsia typhi
HLA-A*03:01 = experiment: as above
HLA-B*15:01 [6] = experiment: as above
HLA-A*02:11 = experiment: as above
HLA-B*51:01 [7] = experiment: as above; conditions: source organism: Rickettsia typhi
HLA-A*80:01 = experiment: as above; conditions: source organism: Rickettsia typhi
HLA-A*02:50 = experiment: as above; conditions: source organism: Rickettsia typhi
HLA-A*02:12 = experiment: as above
HLA-A*30:01 [8] = experiment: IEDB peptide-MHC binding, purified MHC/competitive/fluorescence; filed as Kd, often an IC50 or EC50 that approximates it; ≥ and ≤ were set here for values at or beyond the usual limits of such assays; conditions: source organism: Giardia lamblia ATCC 50803
HLA-B*39:01 [9] = experiment: as above; conditions: source organism: Giardia lamblia ATCC 50803
HLA-B*15:09 = experiment: as above; conditions: source organism: Giardia lamblia ATCC 50803
HLA-B*15:17 [10] = experiment: as above; conditions: source organism: Giardia lamblia ATCC 50803
HLA-B*08:01 [11] = experiment: IEDB peptide-MHC binding, purified MHC/direct/fluorescence; filed as Kd, often an IC50 or EC50 that approximates it; ≥ and ≤ were set here for values at or beyond the usual limits of such assays; conditions: source organism: Giardia lamblia ATCC 50803
HLA-A*26:01 = experiment: as above; conditions: source organism: Giardia lamblia ATCC 50803
HLA-B*38:01 = experiment: as above; conditions: source organism: Giardia lamblia ATCC 50803
HLA-A*02:03 = experiment: as above; conditions: source organism: Giardia lamblia ATCC 50803
HLA-B*58:01 [12] = experiment: IEDB peptide-MHC binding, purified MHC/competitive/fluorescence; ≥ and ≤ were set here for values at or beyond the usual limits of such assays; conditions: source organism: Homo sapiens
HLA-B*51:01 [13] = experiment: as above; conditions: source organism: Homo sapiens
HLA-B*08:01 [14] = experiment: IEDB peptide-MHC binding, purified MHC/competitive/fluorescence; filed as Kd, often an IC50 or EC50 that approximates it; ≥ and ≤ were set here for values at or beyond the usual limits of such assays; conditions: source organism: Escherichia coli 536
HLA-B*07:02 [15] = experiment: as above; conditions: source organism: Escherichia coli 536
HLA-B*15:01 [16] = experiment: as above; conditions: source organism: Escherichia coli 536
HLA-B*51:01 [17] = experiment: as above; conditions: source organism: Escherichia coli 536
[18] = source organism: Marburg virus - Musoke, Kenya, 1980
[19] = source organism: Rickettsia prowazekii
[20] = source organism: Rickettsia typhi
[21] = source organism: Giardia lamblia ATCC 50803

## AEALLADGL
HLA-B*48:01; [18]
  Kd: ≥ 20 µM
HLA-A*69:01; [18]
  Kd: ≥ 20 µM
HLA-A*31:01; [18]
  Kd: ≥ 20 µM
HLA-B*39:01 [1]
  Kd: ≥ 20 µM
HLA-A*11:01; [18]
  Kd: ≥ 20 µM
HLA-A*01:01; [18]
  Kd: ≥ 20 µM
HLA-B*07:02 [2]; [18]
  Kd: ≥ 20 µM
HLA-A*02:01; [18]
  Kd: ≥ 20 µM
HLA-B*58:01 [3]; [18]
  Kd: ≥ 20 µM
HLA-B*18:01; [18]
  Kd: 1.75 µM
HLA-B*44:02; [18]
  Kd: ≥ 10 µM
HLA-B*08:03
  Kd: ≥ 20 µM
HLA-A*26:02
  Kd: ≥ 20 µM
HLA-A*26:03
  Kd: ≥ 20 µM
HLA-A*68:02
  Kd: ≥ 20 µM
HLA-B*08:02; source organism: Ravn virus - Ravn, Kenya, 1987
  Kd: ≥ 20 µM
HLA-B*57:01; [18]
  Kd: ≥ 20 µM
HLA-B*40:01; [18]
  Kd: 0.0113 µM
HLA-B*15:17 [4]
  Kd: ≥ 20 µM
HLA-B*27:05; [18]
  Kd: ≥ 20 µM

## AQEDDQYVF
HLA-B*15:02
  Kd: ≥ 20 µM
HLA-B*46:01; source organism: dengue virus type 4
  Kd: ≥ 20 µM

## ELYPTVNTY
HLA-A*02:19
  Kd: ≥ 20 µM
HLA-A*30:01 [5]
  Kd: ≥ 20 µM
HLA-A*69:01; [19]
  Kd: 14.5 µM
HLA-A*23:01
  Kd: ≥ 20 µM
HLA-A*24:03
  Kd: ≥ 20 µM
HLA-A*29:02
  Kd: 0.055 µM
HLA-A*02:10
  Kd: ≥ 20 µM
HLA-A*03:01; [19]
  Kd: 2.02 µM
HLA-B*44:02; [20]
  Kd: ≥ 20 µM
HLA-B*15:01 [6]; [19]
  Kd: 0.228 µM
HLA-A*02:11; [20]
  Kd: ≥ 20 µM
HLA-B*57:01; [20]
  Kd: ≥ 20 µM
HLA-B*51:01 [7]
  Kd: ≥ 20 µM
HLA-A*80:01
  Kd: 4.5 µM
HLA-A*02:50
  Kd: ≥ 20 µM
HLA-A*02:12; [20]
  Kd: ≥ 20 µM

## LPVFATIGL
HLA-A*30:01 [8]
  Kd: ≥ 20 µM
HLA-B*39:01 [9]
  Kd: 0.0902 µM
HLA-B*15:09
  Kd: 1.98 µM
HLA-B*15:17 [10]
  Kd: ≥ 20 µM
HLA-B*08:01 [11]
  Kd: ≥ 20 µM
HLA-B*48:01; [21]
  Kd: ≥ 20 µM
HLA-A*69:01; [21]
  Kd: 0.0117 µM
HLA-A*31:01; [21]
  Kd: ≥ 20 µM
HLA-A*11:01; [21]
  Kd: ≥ 20 µM
HLA-A*01:01; [21]
  Kd: ≥ 20 µM
HLA-A*26:01
  Kd: ≥ 20 µM
HLA-B*07:02 [2]; [21]
  Kd: 0.0583 µM
HLA-A*02:01; [21]
  Kd: 7.53 µM
HLA-A*03:01; [21]
  Kd: ≥ 20 µM
HLA-B*58:01 [3]; [21]
  Kd: ≥ 20 µM
HLA-B*18:01; [21]
  Kd: 3.1 µM
HLA-B*15:01 [6]; [21]
  Kd: ≥ 20 µM
HLA-A*02:11; [21]
  Kd: 0.146 µM
HLA-B*46:01; [21]
  Kd: ≥ 20 µM
HLA-B*08:02; [21]
  Kd: ≥ 20 µM
HLA-B*57:01; [21]
  Kd: ≥ 20 µM
HLA-B*38:01
  Kd: ≥ 20 µM
HLA-B*40:01; [21]
  Kd: ≥ 20 µM
HLA-A*02:03
  Kd: ≥ 20 µM
HLA-B*27:05; [21]
  Kd: ≥ 20 µM
HLA-A*02:12; [21]
  Kd: 0.393 µM

## MASSPTSI
HLA-B*58:01 [12]
  IC50: 0.987 µM
HLA-B*51:01 [13]
  IC50: 1.52 µM

## SPLHVFVAV
HLA-B*08:01 [14]
  Kd: ≥ 20 µM
HLA-B*07:02 [15]
  Kd: 0.0512 µM
HLA-B*15:01 [16]
  Kd: ≥ 20 µM
HLA-B*51:01 [17]
  Kd: 3.66 µM
